Source: paper PMC10819704, “Regulatory Role of GgaR (YegW) for Glycogen Accumulation in Escherichia coli K-12” (Microorganisms, 2024)

Assays:
[1] = target: T1, GgaR (YegW) (Escherichia coli K-12 W3110) (UniProt P0ACM5); assay: EMSA; conditions: EMSA: binding buffer composition and pH not given; 37 C, 30 min (+30 min with effector); 0.5 pmol probe; 5% PAGE, GelRed stain
T1 sequence: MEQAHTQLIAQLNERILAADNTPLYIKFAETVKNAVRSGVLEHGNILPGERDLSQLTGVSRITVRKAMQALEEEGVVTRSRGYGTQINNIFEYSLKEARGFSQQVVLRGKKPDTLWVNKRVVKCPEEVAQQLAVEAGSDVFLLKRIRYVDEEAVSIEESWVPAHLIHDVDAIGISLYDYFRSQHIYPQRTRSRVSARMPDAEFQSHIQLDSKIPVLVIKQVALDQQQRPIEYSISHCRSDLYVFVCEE

[2] = target: GgaR (YegW) (Escherichia coli, UniProt P0ACM5); assay: gel shift assay: loss of GgaR-DNA complex; assay type: binding; conditions: 2.0 pmol GgaR, 0.5 pmol fbaB/yegT spacer DNA probe, 10-100 uM ADPG, 37 °C; effector (inducer) releasing the repressor from DNA

Molecule	binding [1]	gel shift assay: loss of GgaR-DNA complex [2]
AATCATAATCCTGGTCGTTACGGGCGAGTTTTTCCATCTTTTGGATGTTTTTTCAGCGTTTTCTGTTGGCTCGATTCATCAGAAAAAATGTTAGCGCGGTCAAGTTTTCACCGCAAAGGTATTTAAAAGGTATTATTAAGTGGTATTGTCATCGCGTACCTTACATTACCTGTCATGAAGGAATTAAAAGATGAAAACAACAGCAAAGCTGTCGTTCATGATGTTTGTTGAATGGTTTATC (double strand) [probe-2]	binds	
TTTCTGATGAATCGAGCCAACAGAAAACGCTGAAAAAACATCCAAAAGATGGAAAAACTCGCCCGTAACGACCAGGATTATGATTGCCCGCAAAAGGCGGGCCAGGACAATCCATAGCCGATATCCAATCGGAATTTACGGGAGCATAGTAATGACAGATATTGCGCAGTTGCTTGGCAAAGACGCCGACAACCTTTTACAGCACCGTTGTATGACAATTCCTTCTGACCAGCTTTATCTCCCCGGACATGACTACGTAGACCGCGTAATGATTG (double strand) [probe-1]	no binding	
AAATGGATATTAAAGTCATGCTCGGCCTGGATGCGCTGATCCTGCTGCGCGATAAAAACTTCCTCGTCTTTTTCTTCTGTTCATTCCTGTTTGCGATGCCACTAGCGTTCTATTACATCTTTGCCAACGGTTATCTGACCGAAGTTGGCATGAAAAACGCCACCGGCTGGATGACGCTCGGCCAGTTCTCTGAAATCTTCTTTATGCTGGCATTGCCGTTTTTCACTAAACGCTTTGGTATCAAAAAGGTATTATTGCTTGGTCTGGTCACCGCTGCGATCCGCTATGGCTTCTTTAT (double strand) [probe-5]	binds more weakly	
Nc1ncnc2c1ncn2[C@@H]1O[C@H](COP(=O)(O)OP(=O)(O)O[C@H]2O[C@H](CO)[C@@H](O)[C@H](O)[C@H]2O)[C@@H](O)[C@H]1O [ADPG, ADP-glucose]		After adding increasing concentrations of ADPG, the complex of GgaR and the fbaB/yegT spacer
